The results in this text go back to patent US20170101470A1 (PROTHENA BIOSCIENCES, published 2017).

Residue numbers refer to the chain shown, from its start. Names and notes keep the numbering of the source.

By IC50 is commonly meant the concentration that inhibits the measured activity by half.

The target in assay [1] is laminin α-4 (UniProt Q16363 25-1823). Kind of assay: FACS on MCAM mutants displayed on mammalian cells.
Assay [2] concerns the target T1, human MCAM-Fc protein (extracellular domain of human MCAM fused to human IgG) (human, UniProt P43121 24-559).
T1 construct: also called hMCAM-Fc; MCAMhFc
T1 chain: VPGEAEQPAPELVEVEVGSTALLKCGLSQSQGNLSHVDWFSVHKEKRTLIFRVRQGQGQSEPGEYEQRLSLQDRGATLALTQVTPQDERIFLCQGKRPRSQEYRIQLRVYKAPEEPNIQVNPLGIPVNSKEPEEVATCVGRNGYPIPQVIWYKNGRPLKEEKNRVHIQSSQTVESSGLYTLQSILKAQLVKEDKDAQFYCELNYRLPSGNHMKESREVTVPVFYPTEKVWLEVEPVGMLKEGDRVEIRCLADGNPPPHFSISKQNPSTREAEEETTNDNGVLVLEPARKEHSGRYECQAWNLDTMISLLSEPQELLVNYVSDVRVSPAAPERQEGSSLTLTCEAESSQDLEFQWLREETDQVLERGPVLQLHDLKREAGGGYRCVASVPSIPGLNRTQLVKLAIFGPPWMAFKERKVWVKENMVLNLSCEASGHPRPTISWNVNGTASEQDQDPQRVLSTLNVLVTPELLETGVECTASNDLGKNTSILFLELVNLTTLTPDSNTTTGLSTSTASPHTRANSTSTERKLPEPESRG
The assay is described as follows: summary sentence of Example 3 (ForteBio, MCAMhFc). From the text:
(§1) The following protocol was used: ForteBio anti-human IgG Fc biosensors were used to immobilize various MCAMhFc domains including full length MCAMhFc protein on to biosensor surface. […] After loading these samples into a black 96 well plate, the Octet Red was programmed as follows: 60 seconds for baseline #1; 180 seconds for loading various domains; 60 seconds for baseline #2; 180 seconds for association of antibody to domain; and 240 seconds for dissociation of antibody from domain.
(§2) Reagents and Supplies Used: [0358] 1. MCAMhFc final concentration @ 5 ug/ml [0359] […] 3. ForteBio anti-human IgG Fc Capture (AHC) biosensors for kinetics experiments, cat#18-5060 [0361] 4. Block 96 well plate from Greiner Bio-one, cat#655209 [0362] 5. ForteBio Octet Red machine [0363] 6. Fresh tissue culture medium, DMEM with 20% FCS, was used as buffer for dilution
(In general: BLI is a label-free optical method that tracks binding on a fibre tip over time.)

Assay [3] addresses T2, human MCAM expressed on CHO cells (full length human MCAM gene) (human, UniProt P43121 24-646).
T2 construct: also called hMCAM expressing CHO cells; CD146
T2 chain: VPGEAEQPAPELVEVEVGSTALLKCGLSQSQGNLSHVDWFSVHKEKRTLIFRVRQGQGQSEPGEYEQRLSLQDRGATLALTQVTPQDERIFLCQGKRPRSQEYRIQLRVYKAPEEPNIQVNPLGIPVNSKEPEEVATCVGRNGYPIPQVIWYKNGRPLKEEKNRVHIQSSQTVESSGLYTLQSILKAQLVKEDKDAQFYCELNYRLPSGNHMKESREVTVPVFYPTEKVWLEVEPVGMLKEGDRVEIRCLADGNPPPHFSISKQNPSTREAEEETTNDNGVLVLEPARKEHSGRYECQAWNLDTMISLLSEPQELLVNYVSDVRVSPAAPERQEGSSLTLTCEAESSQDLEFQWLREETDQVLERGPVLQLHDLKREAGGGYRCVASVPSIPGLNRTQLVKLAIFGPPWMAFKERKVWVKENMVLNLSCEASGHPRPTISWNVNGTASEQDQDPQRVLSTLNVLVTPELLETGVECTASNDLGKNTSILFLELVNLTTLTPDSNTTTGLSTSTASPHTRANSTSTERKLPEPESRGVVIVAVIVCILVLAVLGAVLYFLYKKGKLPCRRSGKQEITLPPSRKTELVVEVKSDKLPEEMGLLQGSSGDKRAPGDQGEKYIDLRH
The assay is described as follows: flow cytometry: blocking of recombinant human laminin 411 (20 ug/ml) binding to CHO cells expressing human MCAM. How it is done:
The 87 independent mouse fusion clones and 26 independent rat fusion clones described in Example 1 above as being capable of (i) binding to human MCAM, and (ii) blocking the interaction between human MCAM and the α-4 chain of laminin were further characterized as follows. First, IC50 quantitation for the ability of the monoclonal antibody to block the binding of human MCAM to the α-4 chain of laminin was determined as follows. CHO cells expressing human MCAM were incubated with an anti-human MCAM antibody (at various concentrations) for 30 minutes at 4 degrees Celsius. […] Unbound laminin was then washed away, and the laminin bound to the surface of the cells was detected with fluorescently labeled anti-laminin antibodies. After washing, the amount of laminin bound to the surface was detected by flow cytometry, and IC50s were calculated based on the mean fluorescent intensity.
Amino acid and nucleic acid sequences of the heavy and light chains of these antibodies, and their hypervariable regions, are provided in SEQ ID NOs:29-92. […] As such, each of these specific monoclonal antibodies was very capable of binding to human MCAM and inhibiting the interaction of cell-expressed human MCAM with its α-4 laminin binding ligand.
(In general: Flow cytometry measures light scatter and fluorescence of single cells or particles in a stream.)

Assay [4] has as its target T3, human MCAM domain 3 hFc construct (human, UniProt P43121 244-321).
T3 construct: One of the 'various MCAMhFc domains' loaded on the ForteBio sensors; also called MCAMhFc domain 3
T3 sequence: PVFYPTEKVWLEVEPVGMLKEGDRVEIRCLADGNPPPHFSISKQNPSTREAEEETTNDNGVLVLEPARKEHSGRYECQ
Kind of assay: ForteBio Octet Red, MCAMhFc domains on anti-human IgG Fc sensors, antibody at 5 ug/ml.
Source text: as §1, §2

The target in assay [5] is T4, human MCAM domain 2 hFc construct (human, UniProt P43121 139-242).
T4 construct: One of the 'various MCAMhFc domains' loaded on the ForteBio sensors; also called MCAMhFc domain 2
T4 sequence: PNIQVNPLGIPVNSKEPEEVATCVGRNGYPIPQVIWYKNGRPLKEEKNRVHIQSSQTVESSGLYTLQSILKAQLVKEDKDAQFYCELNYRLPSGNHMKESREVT
The assay is described as follows: ForteBio Octet Red, MCAMhFc domains on anti-human IgG Fc sensors.
Source text: as §1, §2

Assay [6] addresses T5, human MCAM domains 1 and 2 hFc construct (human, UniProt P43121 19-242).
T5 construct: One of the 'various MCAMhFc domains' loaded on the ForteBio sensors
T5 sequence: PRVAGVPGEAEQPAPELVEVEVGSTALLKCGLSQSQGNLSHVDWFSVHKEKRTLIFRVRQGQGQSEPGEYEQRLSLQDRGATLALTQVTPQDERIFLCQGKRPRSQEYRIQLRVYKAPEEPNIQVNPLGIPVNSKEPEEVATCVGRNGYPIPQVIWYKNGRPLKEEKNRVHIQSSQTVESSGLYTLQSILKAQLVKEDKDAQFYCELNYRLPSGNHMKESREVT
Described as above.
Source text: as §1, §2

The target in assay [7] is T6, human MCAM domain 1 hFc construct (human, UniProt P43121 19-129).
T6 construct: One of the 'various MCAMhFc domains' loaded on the ForteBio sensors; also called MCAMhFc domain 1
T6 sequence: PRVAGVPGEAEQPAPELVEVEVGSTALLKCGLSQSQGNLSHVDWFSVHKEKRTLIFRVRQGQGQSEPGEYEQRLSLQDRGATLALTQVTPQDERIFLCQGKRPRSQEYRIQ
Described as above.
Source text: as §1, §2

For assay [8], the target named is T7, recombinant hMCAM-His (human, UniProt P43121 24-559).
T7 chain: T1 chain
Kind of assay: competitive ELISA on coated hMCAM-His, competitor biotinylated rodent or chimeric 2120; IC50 relative to rodent 2120, Expt. #1. As to the method: The apparent affinities of the humanized antibodies were compared to the parental rodent or chimeric antibody in a competitive ELISA according to the following protocol: ELISA plates were coated with recombinant hMCAM-His, and blocked with casein buffer to prevent non-specific binding. Biotinylated rodent or chimeric antibody was added at a subsaturating concentration, in the presence or absence of 3× increasing concentrations of unlabeled competitor (humanized antibody, rodent, or chimeric). After washing to remove unbound antibody, streptavidin HRP was added to allow detection of the biotinylated antibody. The ELISA was developed with TMB substrate and the OD450 was measured. The IC50 of the unlabeled competitor was determined using the GraphPad Prism5 software.

For assay [9], the target named is T7, recombinant hMCAM-His. The assay is described as follows: ForteBio Octet Red, antibody on anti-human Fc sensors, hMCAMHis analyte, 1:1 fit; affinity relative to rodent 2120, Expt. #1. As to the method: The affinities were measured using the ForteBio Octet Red. Anti-human Fc sensors were used to capture the humanized antibodies, and several concentrations of hMCAMHis analyte were used to determine the affinity using a 1:1 fitting model.

laminin α-4, sequence (Q16363 25-1823): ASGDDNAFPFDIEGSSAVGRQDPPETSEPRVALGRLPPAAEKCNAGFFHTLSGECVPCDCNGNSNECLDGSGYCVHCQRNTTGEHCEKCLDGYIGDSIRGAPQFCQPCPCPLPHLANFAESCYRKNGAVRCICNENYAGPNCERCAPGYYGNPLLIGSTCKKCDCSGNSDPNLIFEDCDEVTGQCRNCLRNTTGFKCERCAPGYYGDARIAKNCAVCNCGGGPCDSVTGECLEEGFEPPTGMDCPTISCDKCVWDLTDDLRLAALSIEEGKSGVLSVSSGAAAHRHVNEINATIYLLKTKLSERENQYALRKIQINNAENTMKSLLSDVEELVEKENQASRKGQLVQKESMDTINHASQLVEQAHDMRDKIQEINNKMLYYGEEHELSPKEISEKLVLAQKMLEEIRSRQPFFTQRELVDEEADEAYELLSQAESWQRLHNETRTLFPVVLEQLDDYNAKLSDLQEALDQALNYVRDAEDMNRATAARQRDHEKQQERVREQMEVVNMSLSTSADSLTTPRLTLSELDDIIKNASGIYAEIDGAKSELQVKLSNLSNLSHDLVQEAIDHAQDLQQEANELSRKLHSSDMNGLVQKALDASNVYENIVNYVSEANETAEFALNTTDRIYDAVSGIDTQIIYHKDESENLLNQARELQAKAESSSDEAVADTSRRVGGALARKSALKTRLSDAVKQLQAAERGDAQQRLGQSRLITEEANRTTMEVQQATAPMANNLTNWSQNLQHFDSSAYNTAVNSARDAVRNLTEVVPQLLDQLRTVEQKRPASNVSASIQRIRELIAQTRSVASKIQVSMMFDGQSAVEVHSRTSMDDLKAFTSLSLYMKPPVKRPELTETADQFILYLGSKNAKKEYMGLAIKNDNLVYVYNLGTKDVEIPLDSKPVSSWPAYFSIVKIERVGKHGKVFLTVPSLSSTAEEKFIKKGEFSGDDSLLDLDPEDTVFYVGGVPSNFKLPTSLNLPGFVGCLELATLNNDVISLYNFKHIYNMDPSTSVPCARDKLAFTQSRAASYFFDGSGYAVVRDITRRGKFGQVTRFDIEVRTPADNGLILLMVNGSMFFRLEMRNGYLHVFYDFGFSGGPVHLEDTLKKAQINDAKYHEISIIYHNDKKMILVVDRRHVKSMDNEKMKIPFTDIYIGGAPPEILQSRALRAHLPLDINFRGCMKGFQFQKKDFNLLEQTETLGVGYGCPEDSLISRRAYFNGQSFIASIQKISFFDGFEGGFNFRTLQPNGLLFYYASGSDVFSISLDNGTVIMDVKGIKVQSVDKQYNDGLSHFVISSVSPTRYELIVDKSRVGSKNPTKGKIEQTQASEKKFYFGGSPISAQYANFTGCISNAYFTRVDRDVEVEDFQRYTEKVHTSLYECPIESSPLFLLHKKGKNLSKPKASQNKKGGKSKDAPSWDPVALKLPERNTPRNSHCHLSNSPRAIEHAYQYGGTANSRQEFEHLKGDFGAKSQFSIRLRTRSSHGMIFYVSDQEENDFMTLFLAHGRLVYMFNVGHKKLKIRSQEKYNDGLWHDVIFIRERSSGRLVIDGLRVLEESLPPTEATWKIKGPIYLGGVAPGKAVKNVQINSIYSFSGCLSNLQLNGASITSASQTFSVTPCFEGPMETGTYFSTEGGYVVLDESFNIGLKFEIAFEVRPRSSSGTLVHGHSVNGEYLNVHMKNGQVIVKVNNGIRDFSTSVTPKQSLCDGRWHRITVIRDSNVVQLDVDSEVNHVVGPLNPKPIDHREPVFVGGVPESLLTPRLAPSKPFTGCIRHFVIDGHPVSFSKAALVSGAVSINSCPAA

B1: human MCAM I141A mutant displayed on mammalian cells (Example 5) (receptor)
chain: T2 chain with I118A
notes: construct and any tag not described
Take B1: the binding result in assay [1] is listed as “no binding”.

B2: human MCAM D216A mutant displayed on mammalian cells (Example 5) (receptor)
chain: T2 chain with D193A
notes: as for B1
With B2, the binding result in assay [1] is “no binding”.

B3: mouse anti-human MCAM monoclonal antibody clone 1415.1.1 (antibody, V domains shown)
VH: QVQLQQPGAELVQPGAPVKLSCKASGYIFTSYWMNWVKQRPGRGLEWIGRIDPSDSKIHYNQKFKDKATLTVDRSSSTAYIQLGSLTSEDSAVYYCAKEGGLRRGDYAMDYWGQGTSVTVSS
VL: DIVMTQSPATLSVTPGDRVSLSCRASQSISDYLHWYQQKSHESPRLLIKYASQSISGIPSRFSGSGSGSDFTLSINSVEPEDVGVYYCQNGHNFPRTFGGGTKLEIK
notes: Mouse hybridoma antibody
B3: the binding result was “binds” in assay [2]; “binds” in assay [4]; “no binding (tested: 5 ug/ml)” in assay [5]; “no binding (tested: 5 ug/ml)” in assay [6]; “no binding (tested: 5 ug/ml)” in [7]. Further, the IC50 in assay [3] turned out to be 0.307 µg/mL.

B4: mouse anti-human MCAM monoclonal antibody clone 1414.1.2 (antibody, V domains shown)
VH: EIQLQQTGPELVKPGASVKISCKASGYSFTDYIMLWVKQSHGKSLEWIGNINPYSGSSGYNLKFKGKATLTVDKSSSTAYMQLNSLTSEDSAVYYCARGKDFAMDYWGQGTSVTVSS
VL: DIVMSQSPSSLAVSAGEKVTMSCKSSQSLLNSSTRKNFLAWYQQKPGQSPKLLIYWASTRESGVPDRFTGSGSGTDFTLTISSVQAEDLAVYYCKQSYNRYTFGGGTKLEIK
notes: Mouse hybridoma antibody
Take B4: the binding result is given as “binds” in assay [2]; “binds” in assay [4]; “no binding (tested: 5 ug/ml)” in assay [5]; “no binding (tested: 5 ug/ml)” in assay [6]; “no binding (tested: 5 ug/ml)” in assay [7]. The IC50 in assay [3] came to 0.431 µg/mL.

B5: mouse anti-human MCAM monoclonal antibody clone 1749.1.3 (antibody, V domains shown)
VH: DVKLVESGGDLVKPGGSLKLSCAASGFTFSSYIMSWVRQTPEKRLEWVATISSGGSSTYYPDSVKGRFTISRDNAKNTLYLQMSSLKSEDTAMYYCTRDDDYDVKVFAYWGQGTLVTVSA
VL: B4 VL with S22N, Q27R, S33R, T34I, F38Y, R100L, Y101L, G105A, I111L
notes: Mouse hybridoma antibody
Consider B5, for which the binding result in assay [2] was “binds”; in assay [4] it was “binds”; in assay [5], “no binding (tested: 5 ug/ml)”; in assay [6], “no binding (tested: 5 ug/ml)”; in assay [7], “no binding (tested: 5 ug/ml)”. Besides, the IC50 in assay [3] was 0.545 µg/mL.

B6: humanized anti-MCAM antibody h2120_VH3 + h2120_VL3 (antibody, V domains shown)
VH: QVTLKESGPVLVKPTETLTLTCTVSGFSLTSSGVSWVRQPPGKALEWIAAISSGGTTYYNSAFKSRLTISRDTSKSQVVLTMTNMDPVDTATYYCARRYGYGWYFDFWGQGTLVTVSS
VL: DIQMTQSPSSLSASVGDRVTINCKASQNIYNSLAWYQQKPGKAPKVLIFNANSLQTGIPSRFSGSGSGTDFTLTISSLQPEDFATYYCQQFYSGYTFGQGTKLEIK
notes: Human IgG1 / human kappa; also called h2120VH3VL3; N-S deamidate VH + conservative VL
As to B6, the “Fold over rodent (ELISA)” value in assay [8] came to 3.47 fold. For the same molecule, the “Fold over rodent (Forte)” value in assay [9] stood at 16.1 fold.
